Assay results published in publication PMC8677862, “Substrate binding modes of purine and pyrimidine nucleotides to human ecto-5′-nucleotidase (CD73) and inhibition by their bisphosphonic acid derivatives” (Purinergic Signalling, 2021).

Substrate: Nc1ncnc2c1ncn2[C@@H]1O[C@H](COP(=O)(O)O)[C@@H](O)[C@H]1O
Assay: purified protein, by the assay type
Type: biochemical, human
Conditions: other: AMP 5-200 μM, 1.25 ng CD73; pH 7.5; 25.0 °C
Procedure: In this study, enzyme activity and inhibition data was characterised using a modified malachite green assay. Each assay consisted of reaction buffer A (50 mM Tris–HCl pH 7.5, 100 mM NaCl, 1 mM MgCl2) to which the appropriate substrate and/or inhibitors (see Table S1) were added. Dissolved compounds were immediately used for the inhibition assays. The reactions were generally initiated by the addition of protein. The protein concentrations, substrates and inhibitors used for the various experiments are detailed below. In all experiments, reactions were monitored over a 10-min period during which samples were taken at regular intervals. At each desired time point, a malachite green/molybdate (1:1) solution was added to the sample, which simultaneously terminated the assay and also allowed the detection of the produced phosphate ions. These reaction mixtures were incubated at 25 °C for 25 min, followed by measurement of the absorbance at 620 nm. […]
The specific activity (μmol Pi/min/mg protein) was calculated from the initial reaction rates and was used to determine when the protein refolding process had reached completion. […] Kinetic values were determined by fitting the Michaelis–Menten equation to the initial reaction rates using GraphPad Prism (GraphPad Software, La Jolla, CA, USA). […]

B1: human CD73 (Homo sapiens; K145S/K147S/K478S/N311D/N333D/N403D/N53D/T376A) (protein)
chain: WELTILHTNDVHSRLEQTSEDSSKCVDASRCMGGVARLFTKVQQIRRAEPNVLLLDAGDQYQGTIWFTVYKGAEVAHFMNALRYDAMALGNHEFDNGVEGLIEPLLKEAKFPILSANISASGPLASQISGLYLPYKVLPVGDEVVGIVGYTSKETPFLSNPGTNLVFEDEITALQPEVDKLKTLNVNKIIALGHSGFEMDKLIAQKVRGVDVVVGGHSNTFLYTGNPPSKEVPAGKYPFIVTSDDGRKVPVVQAYAFGKYLGYLKIEFDERGNVISSHGNPILLDSSIPEDPSIKADINKWRIKLDDYSTQELGKTIVYLDGSSQSCRFRECNMGNLICDAMINNNLRHADEMFWNHVSMCILNGGGIRSPIDERNDGTITWENLAAVLPFGGTFDLVQLKGSTLKKAFEHSVHRYGQSTGEFLQVGGIHVVYDLSRKPGDRVVKLDVLCTSCRVPSYDPLKMDEVYKVILPNFLANGGDGFQMIKDELLRHDSGDQDINVVSTYISKMKVIYPAVEGRIKFS
notes: His6 (C); made in house
B1 was tested. Which Km did it give?
Its Km is 10.5 µM.

And the Vmax?
Its Vmax is 301.2 U/mg.
